Values belong to the binder of their own block, whether it stands above or below them.
Assays:
Settings in all cases: both partners purified
σR (residues 5-227) [1] = target: T1, σR (residues 5-227) (Streptomyces coelicolor, UniProt Q7AKG9 5-227); assay: ITC; with zinc (+), RsrA preincubated with 1 mM ZnCl2 and buffer exchanged; direct titration for weaker binding mutants (methods: 10 μM RsrA in the cell, 100 μM σR in the syringe); 35 °C, 50 mM Tris pH 7.5, 100 mM NaCl, 2 mM DTT; single binding site model
T1 construct: ECF sigma factor σR (SigR) of Streptomyces coelicolor; residues 5-227 subcloned into pET21a with a C-terminal stop codon for tagless expression; also called sigma factor σR; SigR; source: E. coli BL21(DE3), purified without tags (ammonium sulfate precipitation, Q-Sepharose, Hi-Load S75)

σR (residues 5-227) [2] = target: T1, σR (residues 5-227); assay: ITC; without zinc (-); direct titration; 35 °C, 50 mM Tris pH 7.5, 100 mM NaCl, 2 mM DTT; single binding site model
σR (residues 5-227) [3] = target: T1, σR (residues 5-227); assay: ITC; with zinc (+); 35 °C, 50 mM Tris pH 7.5, 100 mM NaCl, 2 mM DTT; the table does not tell whether this sub-nanomolar value came from a direct or a competition titration
[4] = target: T2, σ^R (sigma factor SigR) from Streptomyces coelicolor, residues 5-227, tagless (Streptomyces coelicolor, UniProt Q7AKG9 5-227); assay: ITC; RsrA mutants (values in Supplementary Table 1); 35 °C, 50 mM Tris pH 7.5, 100 mM NaCl, 2 mM DTT; direct titration for weaker binding mutants (10 μM RsrA in the cell, 100 μM σ^R in the syringe); RsrA preincubated with ZnCl2 and buffer exchanged where zinc was included
T2 construct: ECF sigma factor σ^R (SigR) of Streptomyces coelicolor, residues 5-227 subcloned into pET21a (NdeI, BamHI) with a C-terminal stop codon; also called wild-type σ^R; source: E. coli BL21(DE3), pET21a, purified without tags (ammonium sulfate, Q-Sepharose, Hi-Load S75)

σR Trp88Ile Trp119Ile = target: T3, σR Trp88Ile Trp119Ile (Streptomyces coelicolor, UniProt Q7AKG9 5-227, Trp88Ile | Trp119Ile); assay: ITC; competition ITC as for the wild-type complex (Figure 3a): RsrAred.Zn2+ (100 μM) titrated into σR (10 μM, cell) in the presence of 50 μM weak competitor RsrA* Cys11Ser Cys44Ser; 35 °C, 50 mM Tris pH 7.5, 100 mM NaCl, 2 mM DTT
T3 construct: ECF sigma factor σR (SigR) of Streptomyces coelicolor; mutant of the tagless construct of residues 5-227 (all σR mutants were similarly purified); The limits are those of the wild-type construct; source: E. coli BL21(DE3), purified as wild-type σR

Kd (σR (residues 5-227) [1]): 297 nM
B1: RsrA* C41S C44S (natural protein, Streptomyces coelicolor, UniProt Q7AKG8 1-105, looked up)
chain: MSAGEPHETDCSEILDHLYEFLDKEMPDSDAVKFEHHFEESSPSLEKYGLEQAVKKLVKRAAGQDDVPGDLRAKVMGRLDLIRSGQSVPEHDVAAAPSSSAPQES
notes: source: E. coli BL21(DE3) pLysS, purified by a His-tag that was removed by thrombin; not shown: His tag, N-terminal, cleaved

Kd (σR (residues 5-227) [1]): 82.1 nM
B2: RsrA V75A L79A (natural protein, Streptomyces coelicolor, UniProt Q7AKG8 1-105, looked up)
chain: MSCGEPHETDCSEILDHLYEFLDKEMPDSDCVKFEHHFEECSPCLEKYGLEQAVKKLVKRCCGQDDVPGDLRAKAMGRADLIRSGQSVPEHDVAAAPSSSAPQES
notes: also called RsrA Val75Ala Leu79Ala; source: E. coli BL21(DE3) pLysS, purified by a His-tag that was removed by thrombin; not shown: His tag, N-terminal, cleaved

Kd (σR (residues 5-227) [2]): 183 nM
Kd (σR (residues 5-227) [3]): 0.23 nM
B3: RsrA* (natural protein, Streptomyces coelicolor, UniProt Q7AKG8 1-105, looked up)
chain: MSAGEPHETDCSEILDHLYEFLDKEMPDSDAVKFEHHFEECSPCLEKYGLEQAVKKLVKRAAGQDDVPGDLRAKVMGRLDLIRSGQSVPEHDVAAAPSSSAPQES
notes: also called RsrA*red.Zn2+; source: E. coli BL21(DE3) pLysS, purified by a His-tag that was removed by thrombin; not shown: His tag, N-terminal, cleaved

Kd (σR (residues 5-227) [1]): 105 nM
B4: RsrA V54A L57A (natural protein, Streptomyces coelicolor, UniProt Q7AKG8 1-105, looked up)
chain: MSCGEPHETDCSEILDHLYEFLDKEMPDSDCVKFEHHFEECSPCLEKYGLEQAAKKAVKRCCGQDDVPGDLRAKVMGRLDLIRSGQSVPEHDVAAAPSSSAPQES
notes: also called RsrA Val54Ala Leu57Ala; source: E. coli BL21(DE3) pLysS, purified by a His-tag that was removed by thrombin; not shown: His tag, N-terminal, cleaved

Kd [4]: 185 nM
B5: RsrA* Cys11Ser Cys44Ser (natural protein, Streptomyces coelicolor, UniProt Q7AKG8 1-105, looked up)
chain: MSAGEPHETDSSEILDHLYEFLDKEMPDSDAVKFEHHFEECSPSLEKYGLEQAVKKLVKRAAGQDDVPGDLRAKVMGRLDLIRSGQSVPEHDVAAAPSSSAPQES
notes: source: E. coli BL21(DE3) pLysS, purified using a His-tag that was removed by thrombin cleavage; not shown: His-tag, N-terminal, cleaved

binding result [4]: binds
B6: RsrA* Cys44His (natural protein, Streptomyces coelicolor, UniProt Q7AKG8 1-105, looked up)
chain: MSAGEPHETDCSEILDHLYEFLDKEMPDSDAVKFEHHFEECSPHLEKYGLEQAVKKLVKRAAGQDDVPGDLRAKVMGRLDLIRSGQSVPEHDVAAAPSSSAPQES
notes: as for B5

binding result [4]: binds
B7: RsrA* Cys41His (natural protein, Streptomyces coelicolor, UniProt Q7AKG8 1-105, looked up)
chain: MSAGEPHETDCSEILDHLYEFLDKEMPDSDAVKFEHHFEEHSPCLEKYGLEQAVKKLVKRAAGQDDVPGDLRAKVMGRLDLIRSGQSVPEHDVAAAPSSSAPQES
notes: as for B5

binding result (σR Trp88Ile Trp119Ile): binds
B8: RsrA* C11S C44S (natural protein, Streptomyces coelicolor, UniProt Q7AKG8 1-105, looked up)
chain: MSAGEPHETDSSEILDHLYEFLDKEMPDSDAVKFEHHFEECSPSLEKYGLEQAVKKLVKRAAGQDDVPGDLRAKVMGRLDLIRSGQSVPEHDVAAAPSSSAPQES
notes: also called RsrA* Cys11Ser Cys44Ser; source: E. coli BL21(DE3) pLysS, purified by a His-tag that was removed by thrombin; not shown: His tag, N-terminal, cleaved
